Data published in patent US20220064329A1 (Novo Nordisk, published 2022).
Positions count from the first letter of the chain named. Numbers in names are those of the source.

T1: recombinant human activated Factor VII (FVIIa) (human, UniProt P08709 61-212; P08709 213-466, ten glutamate residues of the Gla domain may be gamma-carboxylated)
T1 construct: chains tethered by a disulfide bond; also called Factor VIIa; rFVIIa
T1 sequence 1: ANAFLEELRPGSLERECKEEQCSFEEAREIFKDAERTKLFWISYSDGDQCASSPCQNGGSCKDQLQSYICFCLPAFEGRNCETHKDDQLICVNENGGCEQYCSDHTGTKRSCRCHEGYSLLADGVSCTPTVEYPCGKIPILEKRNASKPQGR
T1 sequence 2: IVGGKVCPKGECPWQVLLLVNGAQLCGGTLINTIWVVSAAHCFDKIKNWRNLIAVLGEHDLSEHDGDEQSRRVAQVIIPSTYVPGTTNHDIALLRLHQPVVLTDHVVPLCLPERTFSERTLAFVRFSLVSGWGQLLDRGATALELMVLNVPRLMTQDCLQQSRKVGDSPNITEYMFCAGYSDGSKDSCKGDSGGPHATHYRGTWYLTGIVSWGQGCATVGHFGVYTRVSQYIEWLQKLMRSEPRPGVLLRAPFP

B1: VH SEQ ID NO 514 / VL SEQ ID NO 454 (antibody, IgG4, V domains shown)
VH: QVQLQESGPGLVEPSDTLSLTCAVSGYSITSDSAWSWIRQPPGKKLEWIGYIQYSGSTNYNPSLKSRVTMSRDTSKNQFSLKLSSVTALDTAVYYCARSVNYYGNSFAVGYWGQGTLVTVSS
VL: EIVLTQSPATLSLSPGERATLSCRASQGVSDYLHWYQQKPGEAPRLLIKYASQPATGIPARFSGSGSGTDFTLTISSLEPEDFAVYYCQNGHSFPLTFGQGTKLEIK
notes: humanized 11F2; IgG4 S228P/kappa
B2: VH SEQ ID NO 522 / VL SEQ ID NO 326 (antibody, IgG4, V domains shown)
VH: B1 VH with D16Q, A23T, T30S, K45G, M70I, L89A, Y111P
VL: B1 VL with V29I, A51T, A84G, Q100A, I106L
notes: as for B1
B3: VH SEQ ID NO 522 / VL SEQ ID NO 382 (antibody, IgG4, V domains shown)
VH: B1 VH with D16Q, A23T, T30S, K45G, M70I, L89A, Y111P
VL: B1 VL with V29L
notes: as for B1
B4: VH SEQ ID NO 522 / VL SEQ ID NO 374 (antibody, IgG4, V domains shown)
VH: B1 VH with D16Q, A23T, T30S, K45G, M70I, L89A, Y111P
VL: B1 VL with V29L, H34A, E42Q, A51T
notes: as for B1
B5: VH SEQ ID NO 522 / VL SEQ ID NO 478 (antibody, IgG4, V domains shown)
VH: B1 VH with D16Q, A23T, T30S, K45G, M70I, L89A, Y111P
VL: B1 VL with E42Q, N90Q
notes: as for B1
B6: VH SEQ ID NO 514 / VL SEQ ID NO 470 (antibody, IgG4, V domains shown)
VH: B1 VH
VL: B1 VL with E42Q
notes: as for B1
B7: VH SEQ ID NO 514 / VL SEQ ID NO 462 (antibody, IgG4, V domains shown)
VH: B1 VH
VL: B1 VL with E42Q, Q100A
notes: as for B1
B8: VH SEQ ID NO 514 / VL SEQ ID NO 366 (antibody, IgG4, V domains shown)
VH: B1 VH
VL: B1 VL with V29L, H34A
notes: as for B1
B9: VH SEQ ID NO 522 / VL SEQ ID NO 462 (antibody, IgG4, V domains shown)
VH: B1 VH with D16Q, A23T, T30S, K45G, M70I, L89A, Y111P
VL: B1 VL with E42Q, Q100A
notes: as for B1
B10: VH SEQ ID NO 522 / VL SEQ ID NO 398 (antibody, IgG4, V domains shown)
VH: B1 VH with D16Q, A23T, T30S, K45G, M70I, L89A, Y111P
VL: B1 VL with H34A, A51T
notes: as for B1
B11: VH SEQ ID NO 514 / VL SEQ ID NO 430 (antibody, IgG4, V domains shown)
VH: B1 VH
VL: B1 VL with H34A, E42Q, A84G
notes: as for B1
B12: VH SEQ ID NO 522 / VL SEQ ID NO 350 (antibody, IgG4, V domains shown)
VH: B1 VH with D16Q, A23T, T30S, K45G, M70I, L89A, Y111P
VL: B1 VL with V29I, E42Q, A51T, Q100A, I106L
notes: as for B1
B13: VH SEQ ID NO 514 / VL SEQ ID NO 446 (antibody, IgG4, V domains shown)
VH: B1 VH
VL: B1 VL with H34A, E42Q, A51T
notes: as for B1
B14: VH SEQ ID NO 514 / VL SEQ ID NO 502 (antibody, IgG4, V domains shown)
VH: B1 VH
VL: B1 VL with E42Q, A51T
notes: as for B1
B15: VH SEQ ID NO 522 / VL SEQ ID NO 414 (antibody, IgG4, V domains shown)
VH: B1 VH with D16Q, A23T, T30S, K45G, M70I, L89A, Y111P
VL: B1 VL with H34A, E42Q
notes: as for B1
B16: VH SEQ ID NO 522 / VL SEQ ID NO 334 (antibody, IgG4, V domains shown)
VH: B1 VH with D16Q, A23T, T30S, K45G, M70I, L89A, Y111P
VL: B1 VL with V29I, E42Q
notes: as for B1
B17: VH SEQ ID NO 514 / VL SEQ ID NO 406 (antibody, IgG4, V domains shown)
VH: B1 VH
VL: B1 VL with H34A, E42Q, Q100A
notes: as for B1
B18: VH SEQ ID NO 514 / VL SEQ ID NO 478 (antibody, IgG4, V domains shown)
VH: B1 VH
VL: B1 VL with E42Q, N90Q
notes: as for B1
B19: VH SEQ ID NO 522 / VL SEQ ID NO 310 (antibody, IgG4, V domains shown)
VH: B1 VH with D16Q, A23T, T30S, K45G, M70I, L89A, Y111P
VL: B1 VL with V29I, H34A, E42Q
notes: as for B1
B20: VH SEQ ID NO 514 / VL SEQ ID NO 494 (antibody, IgG4, V domains shown)
VH: B1 VH
VL: B1 VL with E42Q, F83V
notes: as for B1
B21: VH SEQ ID NO 514 / VL SEQ ID NO 398 (antibody, IgG4, V domains shown)
VH: B1 VH
VL: B1 VL with H34A, A51T
notes: as for B1
B22: VH SEQ ID NO 522 / VL SEQ ID NO 390 (antibody, IgG4, V domains shown)
VH: B1 VH with D16Q, A23T, T30S, K45G, M70I, L89A, Y111P
VL: B1 VL with H34A
notes: as for B1

target: T1, recombinant human activated Factor VII …; test: BLI (Fortebio)
Experimental: All steps were performed in running buffer (20 mM HEPES buffer (pH 7.4), 150 mM NaCl, 5 mM CaCl2, 0.03% Tween 20, 1 mg/ml IgG-free BSA) at […] Antibodies were captured on anti-human tips (AHC, Fortebio) for 3 min at a concentration of 10 ug/ml. This was followed by a 3 min incubation to establish a baseline. Following this, association was monitored for 3 min using four different concentrations of VIIa (25 nm, 50 nM, 100 nM, and 200 nM), followed by a 3 mi dissociation. Sensorgrams were analysed using Fortebio data analysis software.

| Binder | Kd |
| --- | --- |
| B1 | 1.3 nM |
| B2 | 0.81 nM |
| B3 | 1.3 nM |
| B4 | 14 nM |
| B5 | 1.6 nM |
| B6 | 1.2 nM |
| B7 | 1.2 nM |
| B8 | 1.4 nM |
| B9 | 1.2 nM |
| B10 | 320 nM |
| B11 | 7.1 nM |
| B12 | 1.3 nM |
| B13 | 7.7 nM |
| B14 | 0.92 nM |
| B15 | 31 nM |
| B16 | 1.2 nM |
| B17 | 5.3 nM |
| B18 | 1.9 nM |
| B19 | 8.3 nM |
| B20 | 1.4 nM |
| B21 | 7.9 nM |
| B22 | 15 nM |
